We go through one molecule from patent publication US7314919.

The assay addresses His-tagged recombinant full-length HCV NS3 protein (aa 1027 to aa 1657 of the HCV polyprotein, 1b genotype), purified from E. coli (hepatitis C virus, 1b genotype). Nature of the assay: cell-based or functional assay.

B1: Human recombinant anti-NS3 Fab (HFab-aNS3) (Fab, V domains shown)
VH: LEESGGGLVKPGGSLRLSCVASGLTFSRYNMQWVRQAPGKGLEWVASISTSGVYIYYADSVTGRFTISRDNSKNSLYLQMNSLGAEDTAVYYCARDLTFLCGGDCLQPWGQG
VL: AELTQSPSSLSASVGDRVTITCRASQGISRYLAWFQQRPGKAPKSLIYAASHLQSGVPSRFSASGSGTEFTLSISSLQPEDFATYYCQQYDTYPYTFGQGTKLEIKR
Regarding B1, the inhibition of NTPase activity came to 15% and the inhibition of helicase activity stood at 54%.
